# Assay results reported in PMC11435769, “Entrapment of Cyanase from Thermomyces lanuginosus Using Biomimetic Silica and Its Application for Cyanate Bioremediation” (Polymers, 2024).
# Test system: N#CO
# Assay: purified protein
# Format: biochemical, Thermomyces lanuginosus
# Details: free enzyme, standard assay: co-substrate bicarbonate (0.2 mL of 15 mM NaHCO3 in 1 mL), 50 mM Tris-HCl pH 8, 60 °C
substance,measurement,value
TlCyn (Thermomyces lanuginosus),Km,440 µM
same,kcat,18400 s⁻¹
same,kcat/Km,4.19e+07 M⁻¹ s⁻¹
